Assay [1] deals with T1, EDDM, full length EDD with Cys2768 to Ala mutation (human, UniProt O95071 1-2799).
T1 construct: Stably overexpressed in HEK 293 cells (FLAG-CIB co-immunoprecipitation) or transfected for reporter assays; also called mutant EDD; ligase-defective EDD mutant
As to the kind of experiment: anti-FLAG M2 immunoprecipitation from HEK 293 cells overexpressing mutant EDD, EDD western blot. As to the method:
Left, HEK 293 cells overexpressing mutant EDD were transfected with a plasmid encoding Flag-tagged CIB or empty vector (vec). Extracts from these cells were subjected to immunoprecipitation using anti-FLAG Ab M2. Right, nuclear extracts prepared from MCF-7 cells following treatment with DNA damage agents phleomycin (Phleo) or hydroxyurea (HU) were incubated with either GST or GST-CIB fusion protein bound to glutathione-Sepharose beads. Bound proteins from both procedures were analysed by SDS-PAGE and western blotted for EDD and amounts bound are indicated as percentages relative to input.
Stable HEK 293 cells overexpressing EDDM were transfected with pCMVTag2C-CIB or empty vector using Fugene 6 reagent (Roche) for 24 h. Following 6 h incubation in the presence of MG132, cells were harvested and lysates prepared and one mg total protein incubated with anti-FLAG antibody M2 coupled to Sepharose (Sigma Chemical Co., St Louis, USA) for 2 h at 4° C. Beads were recovered by centrifugation and washed extensively in lysis buffer. Western blotting for EDD has been described (Callaghan et al, Oncogene 17, 3479-3491, 1998).
(In general: In western blotting, separated proteins are transferred to a membrane and probed.)

The target of assay [2] is T2, GAL4 DBD-EDDM fusion (full length EDD C2768A mutant bait) (yeast; human, UniProt O95071 1-2799).
T2 construct: Bait for the yeast two-hybrid screen of a human placenta cDNA library; also called full length EDDM (C2768A mutant) bait
The assay is described as follows: yeast two-hybrid screen. An excerpt: The cDNAs for full length EDD mutant and carboxy domain mutants (EDDM and EDD5M) were screened against a human placenta cDNA library in the pACT2 vector by the yeast two-hybrid method (Matchmaker 2, Clontech, Palo Alto, Calif., USA). Stable transformants of Saccharomyces cerevisiae strain Y190 expressing EDD fusion protein were transformed with the library using the lithium acetate method and 2-3×10⁶ primary transformants selected on his-leu-trp-plates. Following a second round of selection on the same medium, colonies were assayed for β.galactosidase activity using a filter-based assay. Interacting plasmids that were positive for β.galactosidase only in the presence of the EDD bait plasmids were transformed into E. coli DH5α cells for further analysis. […] Sequences were analysed by Blast searches of the Genbank and EMBL databases and predicted proteins analysed for motifs using the ISREC Profile Scan Server (www.isrec.isb-sib.ch).
Further yeast two-hybrid screening was aimed at identifying other proteins involved in the ubiquitinylation or coactivation functions of EDD. […] The interaction between CIB and full length EDD initially detected in the yeast two-hybrid system (FIG. 10A) was confirmed by pull-down of in vitro translated EDD proteins with GST-CIB (FIG. 10B). […]

Assay [3] has as its target T2, GAL4 DBD-EDDM fusion (full length EDD …). As to the kind of experiment: yeast two-hybrid screen; truncated clone. From the text:
The cDNAs for full length EDD mutant and carboxy domain mutants (EDDM and EDD5M) were screened against a human placenta cDNA library in the pACT2 vector by the yeast two-hybrid method (Matchmaker 2, Clontech, Palo Alto, Calif., USA). Stable transformants of Saccharomyces cerevisiae strain Y190 expressing EDD fusion protein were transformed with the library using the lithium acetate method and 2-3×10⁶ primary transformants selected on his-leu-trp-plates. Following a second round of selection on the same medium, colonies were assayed for β.galactosidase activity using a filter-based assay. Interacting plasmids that were positive for β.galactosidase only in the presence of the EDD bait plasmids were transformed into E. coli DH5α cells for further analysis. Manual sequencing was carried out using ³³P end-labelled primer in conjunction with the fmol Cycle sequencing kit (Promega Corp., Madison, Wis., USA). Sequences were analysed by Blast searches of the Genbank and EMBL databases and predicted proteins analysed for motifs using the ISREC Profile Scan Server (www.isrec.isb-sib.ch).

B1: FLAG-tagged CIB (full-length CIB in pCMVTag2C) (other, not shown: small tags and cut ends)
chain: MGGSGSRLSKELLAEYQDLTFLTKQEILLAHRRFCELLPQEQRTVESSLRAQVPFEQILSLPELKANPFKERICRVFSTSPAKDSLSFEDFLDLLSVFSDTATPDIKSHYAFRIFDFDDDGTLNREDLSRLVNCLTGEGEDTRLSASEMKQLIDNILEESDIDRDGTINLSEFQHVISRSPDFASSFKIVL
notes: Expressed in HEK 293 cells overexpressing EDDM
For B1, the binding result in assay [1] is listed as “binds”.

B2: GAL4 AD-CIB fusion, full length CIB/KIP (other, not shown: large carriers)
chain: B1 chain
notes: Yeast two-hybrid prey clone from a human placenta cDNA library; also called CIB/KIP full-length clones
Consider B2, for which, in assay [2], the binding result is recorded as “binds”.

B3: GAL4 AD-importin α5 fusion, aa 229-538 (Impα-C) (other, not shown: large carriers)
chain: TRNAVWALSNLCRGKSPPPEFAKVSPCLNVLSWLLFVSDTDVLADACWALSYLSDGPNDKIQAVIDAGVCRRLVELLMHNDYKVVSPALRAVGNIVTGDDIQTQVILNCSALQSLLHLLSSPKESIKKEACWTISNITAGNRAQIQTVIDANIFPALISILQTAEFRTRKEAAWAITNATSGGSAEQIKYLVELGCIKPLCDLLTVMDSKIVQVALNGLENILRLGEQEAKRNGTGINPYCALIEEAYGLDKIEFLQSHENQEIYQKAFDLIEHYFGTEDEDSSIAPQVDLNQQQYIFQQCEAPMEGFQL
notes: Yeast two-hybrid prey clone; also called amino-truncated importin α5; truncated importin α5 clone
As to B3, in assay [3], the binding result is recorded as “binds”.

The values above are taken from patent US20060147922A1 (published 2006).
